Experimental data published in paper PMC2671406 (PLoS ONE, 2009).

Key:
Settings in all cases: both partners purified
[1] = target: T1, Human (vertebrate) calmodulin (human, UniProt P0DP23 1-149); assay: SEC; CaM (200 µl at 176 µM) on Superdex 75 HR 10/30 with and without excess (625 µM) CnA-CBD peptide; 50 mM HEPES pH 7.5, 150 mM NaCl, 4 mM CaCl2
T1 construct: also called CaM

[2] = target: T1, Human (vertebrate) calmodulin; assay: ITC; CaM (0.1 mM) in the cell, CnA-CBD peptide (1 mM) in the syringe, 5 µl injections; +30°C; 10 mM HEPES pH 7.5, 100 mM NaCl, 10 mM CaCl2
[3] = target: T1, Human (vertebrate) calmodulin; assay: ITC; CaM (0.1 mM) in the cell, CnA-CBD peptide (1 mM) in the syringe, 5 µl injections; +35°C; 10 mM HEPES pH 7.5, 100 mM NaCl, 10 mM CaCl2

- stoichiometry N [1]: 1
- Ka [2]: 3.5e+06 M⁻¹
- Kd [2]: 300 nM
- dH [2]: -1.8 kcal/mol
- Ka [3]: 1.4e+06 M⁻¹
- Kd [3]: 700 nM
- dH [3]: -5.7 kcal/mol
B1: Peptide corresponding to the CaM binding domain of calcineurin A (residues 395-411) (peptide)
peptide: VIRNKIRAIGKMARVFS
notes: also called CnA-CBD; CnA-CBD peptide; source: bought: GL Biochem (Shanghai, China)
